# System: HEK293 cells
# Format: cell-based, human
# Settings: luminescence from secreted Gluc in supernatant 24 hours after transfection of HEK293 cells; circular RNA encoding Gluc with the named IRES (UTR truncated to 675 nt)
row,Molecule,Expression
1,"Parechovirus C (nucleic acid, Parechovirus C) DNA: CGGTCATCCCCCTTTCCCCACAGCCGGTGTGGGTTCTAATCGGCTCCTACTAAACACCTAAGCATCACTGCGCCTCTATCTCTCCTATCCACAGGTCTAAGACGCTTGGAATAAGACATGTGGGTGCAATAGGAAGATTAGCTAGTCCAATCTCTCCTTCCAGCTACGCTTCTCCCTTCGATGAGCGTAGGGGGGGCCCCCACCTCCCTCATCTCTGGATAGGGCTCTTGCTACGGGGCTTTCCCGTCTGGACCAGCAGGCCCACTGGTGCGCTTCCATTCAAGTTTAGTGTGCATTACTGTCTGAAATATTGCTTTGCTAGGATCTAGTGTAGCGACCTGCATATTGCCAGCGGACTTCCCCACATGGTAACATGTGCCTCTGGGCCCAAAAGGCATGTCTTTGACCGTATGCAGTACAACCCCAGTATAGGTCCTTTCTATGGCAGTATGGATCTCAGTGATGAGTCTATACAGAATATGGAAGTGGTTCGGATATGTCAGCCCGAAGGATGCCCAGAAGGTACCCGCAGATAACCTTAAGAGACTGTGGATCTGATCTGGGGCCCACCACCTTCGGGTGGGTAGAAGCTAACCATGCCTTGGGTTAAAAAACGTCTAAGGGCTGACCAGACCCGGGGGATCCGGGTTTTCCCTATCTTGACCTACTCTAATC",1.24E+06
2,Ljungan Virus 87-012 (nucleic acid) DNA: CTCATTGCCCACACCTGGTTGGTTCCCAGGTTCATACAATAACCATCAATAAACTTTTAACATCTAAGATAGTATTATCCCATACTAGACTGGACGAAGCCGCTTGGAATAAGTCTAGTCTTATCTTGTATGTGTCCTGCACTGAACTTGTTTCTGTCTCTGGAGTGCTCTACACTTCAGTAGGGGCTGTACCCGGGCGGTCCCACTCTTCACAGGAATCTGCACAGGTGGCTTTCACCTCTGGACAGTGCATTCCACACCCGCTCCACGGTAGAAGATGATGTGTGTCTTTGCTTGTGAAAAGCTTGTGAAAATCGTGTGTAGGCGTAGCGGCTACTTGAGTGCCAGCGGATTACCCCTAGTGGTAACACTAGCCTCTGGGCCCAAAAGGCATGTCATTTGACCACTCAGGTACACAACCCCAGTGATGCACACGCTTAGTAATGGCTTAGTAACAAACATTGATTGATCATTTGAAAGCTGTTAGGAGGTTTAGGTATGACGGGCTGAAGGATGCCCTGAAGGTACCCATAGGTAACCTTAAGCGACTATGGATCTGATCAGGGGCCCACCATGTAACACATGGGTAGAAGTCTTCGGACCTTGGGTTAAAAAACGTCTAGGCCCGCCCCCCACAGGGATGTGGGGTTTCCCTTATAACCCCAATATTGTATA,2.00E+06
3,"Parechovirus A2 (nucleic acid, listed as Parechovirus sp.) DNA: GCCGTCGGGCCTTACACCCCGACTTGCTGAGTTTCTCTAGGAGAGTCCCTTTCCCAGCCAGAGGTGGCTGGTCAAACAATACCAAACGTAACTAAACATCTAAGATAACATAGCCCTATGCCTGGTCTCCACCAGTTGAAGGCATCTTGCAATAAAATGGGTGGATTAAGACGCTTAAAGCATGGAGTCAATTATCTTTTCTAACTAGTGATCTTCACTGGGTGGCAGATGGCGTGCCATAACTCTATTAGTGGGATACCACGCTCGTGGATCTTATGCCCACACAGCCATCCTCTAGTAAGTTTGCAAGGTGTCTGATGAGGCGTGGGAACTTATTGGAAATAATTACTTGCTGCGAAGCATCCTACTGCCAGCGGATCAACACCTGGTAACAGGTGCCCCTGGGGCCAAAAGCCACGGTTTAACAGACCCTTTAGGATTGGTTAAAACCTGAGTAATTATGGAAGATACTTAGTACCTACCAACTTGGTAACAGTGCAAACACTAGTTGTAAGGCCCACGAAGGATGCCCAGAAGGTACCCGCAGGTAACAAGAGACACTGTGGATCTGATCTGGGGCCACCTACCTCTATCCTGGTGAGGTGGTTAAAAAACGTCTAGTGGGCCAAACCCAGGGGGGATCCCTGGTTTCCTTATTTTAGTGTAAATGTCATT",1.80E+07

# — patent US20230226096A1 (Orna Therapeutics, Inc., priority 2020, published 2023)
